Source: the supplement of paper PMC10126150
± gives the standard deviation of the averaged measurements.

Test system: ATP
Test: switch fluorescence ratio, 500 uM ATP over buffer (Cy3 cluster intensity, sum of 5 cycles each) (fold (ratio)); higher = stronger signal-on switching upon ATP binding; sequences stand for … in TCGTCGGCAGCGTCAGATGTGTATAAGAGACAGTTTTTTTTTTTTTTTTTTTTTTTTT…TC
Conditions: aptamer strand: ATP DNA aptamer (quencher-CACCTGGGGGAGTATTGCGGAGGAAGG + anchor), 100 nM annealed; ATP concentration: 500 uM
Summary of the method: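 Values give the fluorescence ratio for each switch-domain sequence, averaged from per-cluster ratios of summed target-cycle to summed buffer-cycle Cy3 intensity. The Cy3-labelled switching-strand clusters sat on a modified Illumina MiSeq flow-cell, were annealed to 100 nM quencher-labelled ATP aptamer, and were imaged in selection buffer, then after 15 min with 500 uM ATP at 22 °C. Five cycles ran with NaOH stripping and re-annealing between them, and clusters outside 100-1000 RFU were excluded.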
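Also: ATP exposure 15 min at 22 °C before imaging.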

| Sequence | switch fluorescence ratio |
| --- | --- |
| TGTTAGGGAT | 1.01 ± 0.034 |
| GGAGTACGG | 1.03 ± 0.028 |
| AGGGTTACTG | 1.04 ± 0.068 |
| GGTCGTTGGT | 1.04 ± 0.022 |
| ATTAAGTTGG | 0.982 ± 0.022 |
| AAGATGTTTG | 0.975 ± 0.021 |
| TTCTGAAACA | 0.969 ± 0.036 |
| GGAGGCGTTT | 0.996 ± 0.04 |
| TATGCGGACA | 1.04 ± 0.027 |
| TTCCCGGGTG | 1.53 ± 0.55 |
| AGGATACATT | 1.02 ± 0.02 |
| AGTGTGGGGA | 1.03 ± 0.028 |
| CGGCCGAGAG | 1.02 ± 0.018 |
| CTTAGATAAA | 0.985 ± 0.026 |
| ATATAGACGG | 0.975 ± 0.024 |
| TCAATGTAGT | 1 ± 0.058 |
| AGTTAAGAT | 1.01 ± 0.022 |
| ACCGGAGGGC | 0.9905 ± 0.0044 |
| GGTAGGGCGA | 1.01 ± 0.026 |
| TAAAAGGGTT | 1 ± 0.031 |
| GGGTTGTTTT | 0.9944 ± 0.0082 |
| TGAGGTTTAG | 1.02 ± 0.028 |
| TTTGTATTGT | 1.019 ± 0.0089 |
| CCTGGTTGTG | 0.992 ± 0.029 |
| AGACTATGAG | 1.03 ± 0.034 |

| Sequence | switch fluorescence ratio |
| --- | --- |
| GGGTGACAAT | 1 ± 0.04 |
| TTAGTTTTAC | 1.004 ± 0.0029 |
| TAAAAAGTAC | 1.02 ± 0.027 |
| TCAATTAACT | 1.03 ± 0.013 |
| TGGTCCTGGT | 0.997 ± 0.019 |
| GTGAGATGGG | 0.984 ± 0.03 |
| GTTATTTAGA | 1.03 ± 0.043 |
| TAAATTAGGG | 0.992 ± 0.033 |
| CGTTTGAGTT | 0.984 ± 0.026 |
| AGGTTTGCTA | 0.959 ± 0.017 |
| TATTAAAAAT | 1.03 ± 0.047 |
| GAGAAAGGGG | 1.06 ± 0.14 |
| CTGCGTGCGG | 0.99635 ± 0.00049 |
| TATGGTGCG | 0.984 ± 0.011 |
| CAGAGTCGGG | 0.9963 ± 0.009 |
| TAGGGAAGAG | 0.996 ± 0.041 |
| ACAGGACGTT | 1.11 ± 0.028 |
| AGTTCTTTGT | 0.985 ± 0.024 |
| AAATTGTTTG | 0.989 ± 0.041 |
| GGTGGTGGCT | 1.04 ± 0.079 |
| TCTGTTGGAC | 0.997 ± 0.024 |
| GAGTATGAGA | 1.009 ± 0.01 |
| ACTAGAAGAC | 1.04 ± 0.012 |
| TGGGAGGTGT | 1.04 ± 0.028 |
| CGAGAAAGAG | 0.983 ± 0.077 |

| Sequence | switch fluorescence ratio |
| --- | --- |
| TGGGGTAAGG | 1.01 ± 0.022 |
| ACGTGAGTTT | 0.957 ± 0.035 |
| ATTGGATGTG | 0.981 ± 0.019 |
| TTTAAGGGGA | 0.996 ± 0.013 |
| TATCGGGATT | 1.02 ± 0.026 |
| TCGTTGTGCT | 0.964 ± 0.027 |
| CTCTTTGCC | 1.17 ± 0.27 |
| GCTTTTTAAA | 0.95 ± 0.016 |
| ATATGGATTG | 1 ± 0.015 |
| TGGGTGCGCG | 1.014 ± 0.0063 |
| ATAGTAGTCA | 1.01 ± 0.024 |
| ACGTAGTGCG | 1 ± 0.023 |
| CGTGCGGGGT | 0.991 ± 0.028 |
| ATTCGTGCGC | 1.071 ± 0.0046 |
| TTAATGGGTG | 1.05 ± 0.015 |
| AAGGAAGGAG | 1.03 ± 0.038 |
| TTAGGTTCAG | 0.9774 ± 0.0084 |
| TGGGGGAGGC | 0.973 ± 0.042 |
| TACATTTGGG | 0.992 ± 0.021 |
| TTGAGAATCC | 1.007 ± 0.0087 |
| TAGGGAACGT | 1.04 ± 0.04 |
| AAACCGGGGG | 1.1 ± 0.085 |
| GTTGGGTAGT | 0.9962 ± 0.006 |
| AGGAACTGCA | 1.07 ± 0.029 |
| CTTTACTCAC | 1.27 ± 0.019 |

| Sequence | switch fluorescence ratio |
| --- | --- |
| TTTATTAAAA | 0.99 ± 0.038 |
| ACTCATATCG | 0.987 ± 0.029 |
| ATTTTGTCCT | 1.08 ± 0.11 |
| CATATTATGT | 1.02 ± 0.011 |
| TGAAGTTTTA | 0.989 ± 0.025 |
| TGCATTCTTT | 0.9999 ± 0.0052 |
| TTAAGTAGGC | 1.16 ± 0.19 |
| CATTGGTCAT | 0.995 ± 0.045 |
| GGGGTATCTC | 0.986 ± 0.021 |
| GGTTGATACG | 0.959 ± 0.026 |
| TTTTTCCAAC | 1.02 ± 0.012 |
| GGGGGCTAGG | 1.02 ± 0.02 |
| TTTGATGGCT | 1.02 ± 0.039 |
| GTCAGTGGGT | 0.9682 ± 0.0079 |
| AGGAGAAGGG | 0.985 ± 0.018 |
| GTGTGAAGGC | 1.03 ± 0.02 |
| GTTCTTTTTT | 0.9511 ± 0.0071 |
| ATGGATTTT | 1.001 ± 0.0019 |
| TTGGGAAATG | 0.985 ± 0.042 |
| ATTTTAACTT | 1.35 ± 0.44 |
| CATTGAAGTG | 0.986 ± 0.053 |
| AATCGGGAA | 0.9868 ± 0.0041 |
| TGGGGACGGG | 1 ± 0.046 |
| GGGGAGAATA | 1.01 ± 0.026 |
| ATAAGTGGTG | 0.976 ± 0.036 |
